Residue numbers refer to the chain shown, from its start. In names and notes the source's numbering stands. One block for each molecule: values may come before it.
Key:
hCEACAM5 = biological target: T1, hCEACAM5 (Homo sapiens, UniProt P06731); test: SPR (Biacore T100) on hCEACAM-5; type: binding
T1 construct: purchased R&D Systems 4128-CM
T1 sequence (P06731 35-676): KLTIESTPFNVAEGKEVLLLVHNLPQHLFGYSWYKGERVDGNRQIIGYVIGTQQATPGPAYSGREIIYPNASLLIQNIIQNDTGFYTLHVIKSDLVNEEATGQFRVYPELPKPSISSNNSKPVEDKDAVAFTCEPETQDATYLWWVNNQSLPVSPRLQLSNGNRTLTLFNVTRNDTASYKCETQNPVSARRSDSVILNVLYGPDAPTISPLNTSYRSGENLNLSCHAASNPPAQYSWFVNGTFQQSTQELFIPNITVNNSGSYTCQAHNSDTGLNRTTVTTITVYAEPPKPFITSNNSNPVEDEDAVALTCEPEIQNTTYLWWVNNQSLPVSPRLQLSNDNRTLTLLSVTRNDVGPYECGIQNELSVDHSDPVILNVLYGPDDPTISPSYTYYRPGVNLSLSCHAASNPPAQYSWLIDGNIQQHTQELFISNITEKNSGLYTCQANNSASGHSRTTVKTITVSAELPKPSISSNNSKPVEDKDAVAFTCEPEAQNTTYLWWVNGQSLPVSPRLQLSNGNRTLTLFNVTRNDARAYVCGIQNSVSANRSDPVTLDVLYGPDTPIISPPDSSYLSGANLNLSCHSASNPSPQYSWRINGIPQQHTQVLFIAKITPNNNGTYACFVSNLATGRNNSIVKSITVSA
Method: In between injections, the surfaces were regenerated with a 5 sec pulse of 10 mM Glycine-HCl pH1.5 and 1 min stabilization period. Evaluation of the association/dissociation data was performed by fitting a 1:1 interaction model (Langmuir binding model) by Biacore T100 software v2.0.3. The affinity constant KD was calculated from resulting association and dissociation rate constants ka and kd and are shown in Table 4.2. The observed affinity of the NbCEA5 Nanobody (designated as CEA#1) and humanised variant (CEA#2) was in line with the reported value.

[1] = biological target: T2, recombinant IL-3Rα ectodomain (Homo sapiens, UniProt P26951); test: SPR (ProteOn) on recombinant IL-3Rα ectodomain; type: binding
T2 construct: Immobilisation of recombinant IL-3Rα ectodomain (Sino Biologicals) was done until 761 RU; purchased Sino Biologicals
T2 sequence (P26951 19-305 limits assumed): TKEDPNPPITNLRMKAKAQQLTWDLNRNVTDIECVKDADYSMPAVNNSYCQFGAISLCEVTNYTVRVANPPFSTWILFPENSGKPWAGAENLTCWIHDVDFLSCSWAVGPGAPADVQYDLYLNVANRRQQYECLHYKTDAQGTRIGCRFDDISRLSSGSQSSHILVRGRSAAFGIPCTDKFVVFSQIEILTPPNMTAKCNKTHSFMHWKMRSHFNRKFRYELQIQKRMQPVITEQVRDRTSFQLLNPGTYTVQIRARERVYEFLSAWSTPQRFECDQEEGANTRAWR
Method: The affinities of CD123 specific Nanobodies were further investigated via Surface Plasmon Resonance (SPR) at ProteOn. Immobilisation of recombinant IL-3Rα ectodomain (Sino Biologicals) was done until 761 RU. The Nanobodies were applied at a highest concentration of 1 μM, followed by a three-fold titration, covering 5 further concentrations ranging from 1 μM to 4.1 nM. These were then applied in a single injection cycle, utilising the ProteOn's specific one-shot kinetics approach for kinetic analysis. Evaluation of the association/dissociation data was performed by fitting a 1:1 interaction model (Langmuir binding model). […] For CD123 Nanobodies the obtained KD values correlated well with the apparent affinities retrieved by cell binding EC50 values (see Table 3).

[2] = biological target: T3, human IL-23R extracellular domain Fc-fusion (Homo sapiens, UniProt Q5VWK5); test: SPR (Biacore T100) on IL-23R-Fc; type: binding
T3 construct: Fc-fusions of human IL12Rβ1, IL12Rβ2 and IL-23R extracellular domains; purchased R&D Systems #1400-IR
T3 sequence (Q5VWK5 24-355 limits assumed): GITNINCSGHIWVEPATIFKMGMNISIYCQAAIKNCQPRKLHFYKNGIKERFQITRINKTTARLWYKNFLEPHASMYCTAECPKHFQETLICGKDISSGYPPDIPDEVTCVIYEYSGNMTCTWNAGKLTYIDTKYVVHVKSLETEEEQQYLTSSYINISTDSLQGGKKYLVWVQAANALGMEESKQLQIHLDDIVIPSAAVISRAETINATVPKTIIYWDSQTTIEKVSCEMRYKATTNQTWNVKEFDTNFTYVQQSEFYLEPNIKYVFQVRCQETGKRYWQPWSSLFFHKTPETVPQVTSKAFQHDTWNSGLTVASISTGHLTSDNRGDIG
Method: (§1) The precise binding affinities of the purified Nanobodies were determined in a multi-cycle kinetic analysis using Surface Plasmon Resonance analysis (Biacore T100) on Fc-fusions of human IL12Rβ1, IL12Rβ2 and IL-23R extracellular domains (R&D Systems, #839-B1, #1959-B2, #1400-IR). Sensorchips CM5 were immobilized with anti-hIgG antibody (GE Healthcare, BR-1008-39), after which receptors were captured at 5 μg/ml protein and contact time of 120 seconds. Running buffer used was HBS-EP+ (GE Healthcare, BR-1006-69) at 25° C., with a flow-rate of […]. For immobilization by amine coupling, EDC/NHS was used for activation and ethanolamine HCl for deactivation (Biacore, amine coupling kit). Nanobodies were evaluated at a concentration range between 1.37 nM and 3 μM. Nanobodies were allowed to associate for 2 min and to dissociate for 15 min at a flow rate of […]. In between injections, the surfaces were regenerated with a 3 min pulse of 3M MgCl2 and 2 min stabilization period. Evaluation of the association/dissociation data was performed by fitting a 1:1 interaction model (Langmuir binding model) by Biacore TWO software v2.0.3.

[3] = tested on: CD8+/CD4− gated and CD4+ gated T cells; test: Multi-colour FACS on TH1 activated T cells gated for CD8 or CD4; type: binding, human; conditions: donor D838; anti-flag-APC detection
Method: To elucidate if CD4-IL12R bispecific polypeptides preferentially bind to the CD4+/IL12R+ TH1 cell subset within the pool of T cells, Nanobody binding was analysed to a pool of activated T cells gated for either CD8 (detected by Anti-hu CD8 PE-Cy7 conjugated monoclonal antibody (BD 557746) or CD4 (detected by Anti-hu CD4 alexa Fluor 488-conjugated polyclonal antibody (R&D FAB8165G) in a multi-colour FACS experiment. Nanobody binding to the CD8+/CD4− gated cells and to CD4+ gated cells was determined using anti-flag-APC (Prozyme PJ255) detection. In this experiment TH1 activated T cells from the same donor (D838) as shown in FIG. 3.6 were used.

[4] = biological target: T4, human IL12Rβ2 extracellular domain Fc-fusion (Homo sapiens, UniProt Q99665); test: SPR (Biacore T100) on IL12Rβ2-Fc; type: binding
T4 construct: Fc-fusions of human IL12Rβ1, IL12Rβ2 and IL-23R extracellular domains; purchased R&D Systems #1959-B2
T4 sequence (Q99665 24-622 limits assumed): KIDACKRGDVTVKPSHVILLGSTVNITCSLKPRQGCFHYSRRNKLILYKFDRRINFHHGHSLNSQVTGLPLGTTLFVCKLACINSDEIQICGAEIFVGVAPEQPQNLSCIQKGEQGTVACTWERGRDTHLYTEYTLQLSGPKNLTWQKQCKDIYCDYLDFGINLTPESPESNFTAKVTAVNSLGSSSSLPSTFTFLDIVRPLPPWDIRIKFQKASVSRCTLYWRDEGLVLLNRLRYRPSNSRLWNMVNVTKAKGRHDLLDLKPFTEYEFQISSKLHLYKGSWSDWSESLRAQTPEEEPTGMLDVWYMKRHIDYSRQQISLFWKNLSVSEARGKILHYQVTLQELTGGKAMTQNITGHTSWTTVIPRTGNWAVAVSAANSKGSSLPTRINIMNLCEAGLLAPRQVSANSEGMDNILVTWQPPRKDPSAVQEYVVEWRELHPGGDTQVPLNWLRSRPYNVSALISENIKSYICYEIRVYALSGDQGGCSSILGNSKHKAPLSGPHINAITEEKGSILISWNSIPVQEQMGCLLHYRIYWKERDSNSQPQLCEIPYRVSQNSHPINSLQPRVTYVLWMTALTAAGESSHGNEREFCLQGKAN
Method: as §1

hCEACAM5 ka (hCEACAM5): 1.1e+06 M⁻¹ s⁻¹
hCEACAM5 kd (hCEACAM5): 0.0033 s⁻¹
B1: CEA#5: NbCEA5(K43Q, G47A, T73N, V78L) (protein)
VHH: EVQLVESGGGSVQAGGSLRLSCAASGDTYGSYWMGWFRQAPGQEREAVAAINRGGGYTVYADSVKGRFTISRDNAKNTLYLQMNSLRPDDTADYYCAASGVLGGLHEDWFNYWGQGTLVTVSS

hCEACAM5 ka (hCEACAM5): 1.3e+06 M⁻¹ s⁻¹
hCEACAM5 kd (hCEACAM5): 0.0025 s⁻¹
B2: CEA#2: humanised NbCEA5 variant (S11L, A14P, K43Q, E44G, R45L, G47A, T73N, A74S, V78L, P84A, D85E, D89V) (protein)
VHH: B1 VHH with S11L, A14P, E44G, R45L, A75S, P88A, D89E, D93V

SPR - IL-3Ra ka [1]: 42500 M⁻¹ s⁻¹
SPR - IL-3Ra kd [1]: 0.00487 s⁻¹
B3: 55F03: CD123 building block, SEQ ID NO: 13 (protein)
VHH: EVQLVESGGGLVQAGGPLRLSCAASGRTFSSYVMGWFRQAPGKEREFVAAIYWSNGKTQYTDSVKGRFTISGDNAKNTVYLQMNSLNPEDTAVYYCVADKDETGFRTLPIAYDYWGLGTQVTVSS

Binding kinetics (SPR) ka (1/Ms), IL-23R [2]: 730000 M⁻¹ s⁻¹
Binding kinetics (SPR) kd (1/s), IL-23R [2]: 0.0081 s⁻¹
B4: IL23R#19: IL-23R specific ligand competing Nanobody (protein)
VHH: EVQLVESGGGLVQPGGSLTLSCVASGRTFSTDVMGWFRQAPGKEREFVAAHRTSGISTVYAASVKGRFTISRDNAKNTVYLGMKSLKPEDTAVYVCAAGSDASGGYDYWGQGTLVTVSS

SPR - IL-3Ra ka [1]: 126000 M⁻¹ s⁻¹
SPR - IL-3Ra kd [1]: 0.00741 s⁻¹
B5: 55C05: CD123 building block, SEQ ID NO: 11 (protein)
VHH: EVQLVESGGGLVPAGDSLRLSCVASGRSLNTYTMGWFRQAPGKECEFVAAINWNGVYRDYADSAKGRFTASRDNAMNTVFLQMNSLKPEDTAVYFCATATQGWDRHTEPSDFGSWGLGTQVTVSS

Binding kinetics (SPR) ka (1/Ms), IL12Rβ2 [4]: 210000 M⁻¹ s⁻¹
Binding kinetics (SPR) kd (1/s), IL12Rβ2 [4]: 0.00057 s⁻¹
B6: IL12Rb2#1: IL-12Rβ2 specific ligand competing Nanobody (protein)
VHH: EVQLVESGGRLVQAGDSLRLSCAASGRTFISYRMGWFRQAPGKEREFVAALRWSSSNIDYTYYADSVKGRFSISGDYAKNTVYLQMNSLKAEDTAVYYCAASTRWGVMESDTEYTSWGQGTLVTVSS
binding to CD4+ gated and CD8+ gated T cells [3]: low fluorescence signals to both CD4+ and CD8+ cells

Binding kinetics (SPR) ka (1/Ms), IL12Rβ2 [4]: 270000 M⁻¹ s⁻¹
Binding kinetics (SPR) kd (1/s), IL12Rβ2 [4]: 0.0018 s⁻¹
B7: IL12Rb2#2: IL-12Rβ2 specific ligand competing Nanobody (protein)
VHH: B6 VHH with I30T, A49S, S56G

SPR - IL-3Ra ka [1]: 37800 M⁻¹ s⁻¹
SPR - IL-3Ra kd [1]: 0.000516 s⁻¹
B8: 51D09: CD123 building block, SEQ ID NO: 10 (protein)
VHH: EVQLVESGGGLVQPGGSLRLSCAASGSIFSGNTMGWYRQAPGKQRELVAAISSGGSTDYADSVKGRFTISRDNSKNTVYLQMNSLRPEDTAVYYCNAAILLYRLYGYEEGDYWGLGTLVTVSS

SPR - IL-3Ra ka [1]: 102000 M⁻¹ s⁻¹
SPR - IL-3Ra kd [1]: 0.00758 s⁻¹
B9: 50F07: CD123 building block, SEQ ID NO: 12 (protein)
VHH: EVQLVESGGGLVQPGGSLRLSCTGSGSTFSINAMGWYRQAPGKQRELVAAITSGGRTNYADSVKGRFTISRDNSKNTVYLQMNSLRPEDTAVYYCNARISAGTAFWLWSDYEYWGLGTLVTVSS

SPR - IL-3Ra ka [1]: 504000 M⁻¹ s⁻¹
SPR - IL-3Ra kd [1]: 0.00794 s⁻¹
B10: 55B04: CD123 building block, SEQ ID NO: 9 (protein)
VHH: EVQLVESGGGLVQPGGSLRLSCAASGINFRFNSMGWWRRRAPGKEREWVAAITSGDITNYRDSVRGRFTISRDNVKNTVYLQMNTLKLEDTAVYYCNTFPPIADYWGLGTQVTVSS

From patent US20220242958A1, “BISPECIFIC NANOBODIES” (Ablynx N.V., priority 2013, published 2022)
